Assay results from publication PMC3575409, “Identification of a Novel Protein-Protein Interaction Motif Mediating Interaction of GPCR-Associated Sorting Proteins with G Protein-Coupled Receptors” (PLoS ONE, 2013).

How the values were obtained:
Format in all cases: binding
GST-fused ADRB1 C-tail = assay: GST-pull down, ADRB1 C-tail; details: for interaction of truncated GASP-1 with ADRB1 C-tail (words): compared with full-length GASP-1
Text: (§1) cDNAs encoding the cytoplasmic C-tail of 14 GPCRs and 2 one-transmembrane receptors were cloned into the pGEX-2T prokaryotic expression vector downstream the GST sequence. The following pGEX constructs were engineered: pGEX-DOR encoding residues 314–372 of the δ-opioid receptor (referring to Swiss-Prot accession number U10504), pGEX-MOR encoding residues 334–400 of the µ-opioid receptor (L29301), pGEX-KOR encoding residues 326–380 of the κ–opioid receptor (U17298), pGEX-ORL1 encoding residues 315–370 of the opioid receptor-like 1 (X77130), pGEX-M1 encoding residues 414–460 of the muscarinic M1 acetylcholine receptor (X52068), pGEX-M2 encoding residues 436–466 of the muscarinic M2 acetylcholine receptor (M16404), pGEX- ADRB1 encoding residues 373–477 of the β1 adrenergic receptor (J03019), pGEX-ADRB2 encoding residues 322–413 of the β2 adrenergic receptor (P07550), pGEX-CALCR encoding residues 407–490 of the calcitonin receptor (L00587), pGEX-CNR2 encoding residues 295–360 of the cannabinoid type 2 receptor (P34972), pGEX-5HT7 encoding residues 380–445 of the 5-hydroxytryptamine 7 receptor (L21195), pGEX-H2 encoding residues 284–349 of the histamine 2 receptor (S57565), pGEX-TXA2 encoding residues 304–343 of the α isoform of the thromboxane A2 receptor (D38081), pGEX-FZ4 encoding residues 493–537 of the frizzled 4 receptor (AB032417), pGEX-TGFβ encoding residues 805–849 of the type III transforming growth factor b receptor (L07594), pGEX-IGF1 encoding residues 1268–1367 of the insulin growth factor I receptor (X04434). Free GST was produced by using the pGEX-4T3 expression vector without insert. The same plasmid was used to clone the cDNA encoding a central domain of GASP-1, corresponding to amino acids 380 to 1073, downstream the GST sequence. All these plasmids were transformed into the Escherichia coli BL21 strain and expression was induced using 1mM of isopropylthiogalactoside for 2 h at 37°C. Bacteria were then pelleted, resuspended in PBS supplemented with cOmplete protease inhibitors (Roche), lysed at 1.5 kbar using a basic Z cell disrupter (constant system) and finally the lysates were cleared by centrifugation (10,000g, 15 min, 4°C).
(§2) cDNAs encoding GASP-1 and GASP-2 were cloned into the pcDNA3 eukaryotic expression vectors. cDNAs encoding GASP-3, -6, -7, and -9 were subcloned into pcDNA3.1 vectors. All the clones were controlled by DNA sequencing. The in vitro production was performed by using the TNT Quick-coupled Transcription/Translation T7 kit (Promega) in presence of [^35S]-Methionine according to the instructions from the manufacturer.
(§3) GST-fusion proteins were immobilized on glutathione-coupled Sepharose beads (GE Healthcare) for 1 h at 4°C and incubated with [^35S]-labelled in vitro translated GASP proteins or their truncated or mutated forms in ice-cold binding buffer containing: 20 mM Tris-HCl pH 7.4, 150 mM NaCl, 1 mM EDTA, 1 mM DTT, 10% glycerol and 1% Triton X-100. The mixture was incubated for 1 h at 4°C with gentle rocking. The beads were washed five times with the same ice-cold buffer, resuspended in 30 µl SDS-PAGE sample buffer, incubated 10 min at 65°C, and pelleted for 60 s at 3000 g. The supernatants were then analyzed by SDS-PAGE, the gels were stained with Coomassie blue to visualize GST-fusion proteins, dried and analyzed using a Phosphor-imager (Personal Molecular Imager FX, Biorad) to visualize [^35S]-labelled GASPs. Quantification was performed with the Quantity One software (Biorad). GST-pull down quantification data were analyzed using GraphPad Prism 4.03 (GraphPad Software). Quantifications presented are means of at least three independent experiments.

GST-fused CALCR C-tail = assay: GST-pull down, CALCR C-tail
Method: (§4) cDNAs encoding the cytoplasmic C-tail of 14 GPCRs and 2 one-transmembrane receptors were cloned into the pGEX-2T prokaryotic expression vector downstream the GST sequence. […]
as §3, with “The mixture was incubated for 1 h at 4°C with gentle rocking. The beads were washed five times with the same ice-cold buffer, resuspended in 30 µl SDS-PAGE sample buffer, incubated 10 min at 65°C, and pelleted for 60 s at 3000 g.” left out

GST-fused TXA2 C-tail = assay: GST-pull down, TXA2 C-tail; details: percent of [35S]-GASP input; pH 7.4, 1 h at 4°C; three independent experiments
Method: as §4
as §3, with “The mixture was incubated for 1 h at 4°C with gentle rocking. The beads were washed five times with the same ice-cold buffer, resuspended in 30 µl SDS-PAGE sample buffer, incubated 10 min at 65°C, and pelleted for 60 s at 3000 g.” left out

GST-fused M1 C-tail = assay: GST-pull down, M1 C-tail; details: for interaction of truncated GASP-1 with M1 C-tail (words): compared with full-length GASP-1
Text: as §1, §2, §3

GST-fused DOR C-tail = assay: GST-pull down, DOR C-tail
Text: as §1, §2, §3

[1] = tested on: GST-fused H2 (histamine H2 receptor) C-tail; assay: GST-pull down, H2 C-tail; details: percent of [35S]-GASP input; pH 7.4, 1 h at 4°C; three independent experiments
Method: as §4
as §3, with “The mixture was incubated for 1 h at 4°C with gentle rocking. The beads were washed five times with the same ice-cold buffer, resuspended in 30 µl SDS-PAGE sample buffer, incubated 10 min at 65°C, and pelleted for 60 s at 3000 g.” left out

[2] = tested on: GST-fused TGFβ (type III transforming growth factor β receptor) C-tail; assay: GST-pull down, TGFβ C-tail; details: for interaction with TGFβ C-tail: non-GPCR control
Text: as §1, §2, §3

[3] = tested on: GST-fused IGF1 (insulin growth factor I receptor) C-tail; assay: GST-pull down, IGF1 C-tail; details: for interaction with IGF1 C-tail: non-GPCR control
Text: as §1, §2, §3

GST-fused GPCR C-tails = assay: GST-pull down, GPCR C-tails; details: for interaction with GPCR C-tails: twelve GPCR C-tails
Text: as §1, §2
as §3, with “experiments. […]” for “experiments.”

GST-fused FZ4 C-tail = assay: GST-pull down, FZ4 C-tail; details: strong = >10% of GASP input
Method: as §4
as §3, with “The mixture was incubated for 1 h at 4°C with gentle rocking. The beads were washed five times with the same ice-cold buffer, resuspended in 30 µl SDS-PAGE sample buffer, incubated 10 min at 65°C, and pelleted for 60 s at 3000 g.” left out

[4] = percent of [35S]-GASP input, pH 7.4, 1 h at 4°C, three independent experiments
[5] = percent of [35S]-GASP input, controls

B1: GASP-6: member of the second GASP subfamily, without GASP motif (protein)
chain: MGYARKVGWVTAGLVIGAGACYCIYRLTRGRKQNKEKMAEGGSGDVDDAGDCSGARYNDWSDDDDDSNESKSIVWYPPWARIGTEAGTRARARARARATRARRAVQKRASPNSDDTVLSPQELQKVLCLVEMSEKPYILEAALIALGNNAAYAFNRDIIRDLGGLPIVAKILNTRDPIVKEKALIVLNNLSVNAENQRRLKVYMNQVCDDTITSRLNSSVQLAGLRLLTNMTVTNEYQHMLANSISDFFRLFSAGNEETKLQVLKLLLNLAENPAMTRELLRAQVPSSLGSLFNKKENKEVILKLLVIFENINDNFKWEENEPTQNQFGEGSLFFFLKEFQVCADKVLGIESHHDFLVKVKVGKFMAKLAEHMFPKSQE
modifications: [35S]-methionine labelled
GST-fused ADRB1 C-tail; [4]
  GASP input retained by ADRB1 C-tail: around 2%
GST-fused CALCR C-tail; [4]
  GASP input retained by CALCR C-tail: around 2%
GST-fused TXA2 C-tail
  GASP input retained by TXA2 C-tail: around 2%
GST-fused M1 C-tail; [4]
  GASP input retained by M1 C-tail: around 2%
GST-fused DOR C-tail; [4]
  GASP input retained by DOR C-tail: around 2%
[1]
  GASP input retained by H2 C-tail: around 2%
[2]
  interaction with TGFβ C-tail: No interaction was detected
[2]; [5]
  GASP input retained by control TGFβ C-tail: less than 1%
[3]
  interaction with IGF1 C-tail: No interaction was detected
[3]; [5]
  GASP input retained by control IGF1 C-tail: less than 1%
GST-fused GPCR C-tails
  interaction with GPCR C-tails: very weak interactions

B2: mutant 1025–1395: truncated mutant of GASP-1 corresponding to the conserved C-terminal domain (protein)
chain: ICRSTCSVEQEPDPSRRPQSWEEVTVQFKPGPWGRVGFPSISPFRFPKEAASLFCEMFGGKPRNMVLSPEGEDQESLLQPDQPSPEFPFQYDPSYRSVQEIREHLRAKESTEPESSSCNCIQCELKIGSEEFEELLLLMEKIRDPFIHEISKIAMGMRSASQFTRDFIRDSGVVSLIETLLNYPSSRVRTSFLENMIRMAPPYPNLNIIQTYICKVCEETLAYSVDSPEQLSGIRMIRHLTTTTDYHTLVANYMSGFLSLLATGNAKTRFHVLKMLLNLSENLFMTKELLSAEAVSEFIGLFNREETNDNIQIVLAIFENIGNNIKKETVFSDDDFNIEPLISAFHKVEKFAKELQGKTDNQNDPEGDQEN
modifications: [35S]-methionine labelled
GST-fused ADRB1 C-tail
  interaction of truncated GASP-1 with ADRB1 C-tail (words): did not display detectable interactions
GST-fused ADRB1 C-tail; listed as 1025–1395
  interaction of truncated GASP-1 with ADRB1 C-tail (words): no significant interaction
GST-fused M1 C-tail
  interaction of truncated GASP-1 with M1 C-tail (words): did not display detectable interactions
GST-fused M1 C-tail; listed as 1025–1395
  interaction of truncated GASP-1 with M1 C-tail (words): no significant interaction
GST-fused DOR C-tail; compared with full-length GASP-1
  interaction of truncated GASP-1 with DOR C-tail: interacted only weakly
GST-fused DOR C-tail; percent of full-length GASP-1 interaction, three independent experiments
  interaction with DOR C-tail relative to full-length GASP-1: 25%

B3: GASP-3: member of the GASP family, two GASP motifs (protein)
chain: MAGTKNKTRAQAKTEKKAAIQAKAGAEREATGVVRPVAKTRAKAKAKTGSKTDAVAEMKAVSKNKVVAETKEGALSEPKTLGKAMGDFTPKAGNESTSSTCKNEAGTDAWFWAGEEATINSWFWNGEEAGNSFSTKNDKPEIGAQVCAEELEPAAGADCKPRSGAEEEEEENVIGNWFWEGDDTSFDPNPKPVSRIVKPQPVYEINEKNRPKDWSEVTIWPNAPAVTPAVLGFRSQAPSEASPPSYIVLASAEENACSLPVATACRPSRNTRSCSQPIPECRFDSDPCIQTIDEIRRQIRIREVNGIKPFACPCKMECYMDSEEFEKLVSLLKSTTDPLIHKIARIAMGVHNVHPFAQEFINEVGVVTLIESLLSFPSPEMRKKTVITLNPPSGDERQRKIELHVKHMCKETMSFPLNSPGQQSGLKILGQLTTDFVHHYIVANYFSELFHLLSSGNCKTRNLVLKLLLNMSENPTAARDMINMKALAALKLIFNQKEAKANLVSGVAIFINIKEHIRKGSIVVVDHLSYNTLMAIFREVKEIIETM
modifications: [35S]-methionine labelled
GST-fused FZ4 C-tail
  interaction with FZ4 C-tail: strong interaction
[2]
  interaction with TGFβ C-tail: no interaction was detected
[3]
  interaction with IGF1 C-tail: no interaction was detected
GST-fused GPCR C-tails; percent of GASP input
  GASP input retained by GPCR C-tails: > 10%
GST-fused GPCR C-tails
  interaction with GPCR C-tails: medium to strong interactions

B4: mutant 470–838: truncated GASP-2 corresponding to the C-terminal domain (protein)
chain: KVSDRFRDAAEELNASSRPQTWDEVTVEFKPGLFHGVGFRSTSPFGIPEEASEMLEAKPKNLELSPEGEEQESLLQPDQPSPEFTFQYDPSYRSVREIREHLRARESAESESWSCSCIQCELKIGSEEFEEFLLLMDKIRDPFIHEISKIAMGMRSASQFTRDFIRDSGVVSLIETLLNYPSSRVRTSFLENMIHMAPPYPNLNMIETFICQVCEETLAHSVDSLEQLTGIRMLRHLTMTIDYHTLIANYMSGFLSLLTTANARTKFHVLKMLLNLSENPAVAKKLFSAKALSIFVGLFNIEETNDNIQIVIKMFQNISNIIKSGKMSLIDDDFSLEPLISAFREFEELAKQLQAQIDNQNDPEVGQQS
modifications: [35S]-methionine labelled
GST-fused ADRB1 C-tail; compared to wild-type GASP-2
  interaction of GASP-2 mutants with ADRB1 C-tail: almost no interaction
GST-fused CALCR C-tail; compared to wild-type GASP-2
  interaction of GASP-2 mutants with CALCR C-tail: almost no interaction
GST-fused M1 C-tail; compared to wild-type GASP-2
  interaction of GASP-2 mutants with M1 C-tail: almost no interaction
